Assay results from patent publication US8877206B2, “Stimulation of an immune response by cationic lipids” (PDS Biotechnology Corporation, priority 2007, dated 2014).
Ends that are not written are not given here.

How the values were obtained:
[1] = target: T1, H-2K^b molecules on RMA-S cells (Mus musculus, UniProt P01901); assay: MHC class I binding on RMA-S cells, H-2K^b; format: cell-based; details: peptide 10 μM
T1 construct: endogenous in cells; host or cells: RMA-S mouse lymphoma cells
T1 sequence (P01901 22-369): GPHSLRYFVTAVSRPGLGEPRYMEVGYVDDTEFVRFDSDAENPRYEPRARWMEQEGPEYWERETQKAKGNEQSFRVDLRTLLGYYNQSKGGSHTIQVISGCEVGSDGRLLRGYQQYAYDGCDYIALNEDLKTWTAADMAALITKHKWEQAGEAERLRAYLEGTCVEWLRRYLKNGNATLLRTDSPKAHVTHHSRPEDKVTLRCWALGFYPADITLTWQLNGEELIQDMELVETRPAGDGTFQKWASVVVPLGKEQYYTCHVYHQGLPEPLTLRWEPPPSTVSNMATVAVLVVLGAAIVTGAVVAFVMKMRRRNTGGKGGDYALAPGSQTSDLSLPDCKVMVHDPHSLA
T1 sequence (P01887 21-119 partner): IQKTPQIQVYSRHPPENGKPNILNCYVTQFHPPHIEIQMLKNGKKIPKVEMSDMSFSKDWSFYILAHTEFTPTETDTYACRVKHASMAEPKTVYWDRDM

[2] = target: T2, H-2D^b molecules on RMA-S cells (Mus musculus, UniProt P01899); assay: MHC class I binding on RMA-S cells, H-2D^b; format: cell-based; details: peptide 10 μM, overnight 27° C. then 2 h 37° C.; FIG. 13
T2 construct: it caused a four-fold up-regulation of H-2D^b molecules on RMA-S cells compared to the control; endogenous in cells; host or cells: RMA-S mouse lymphoma cells
T2 sequence (P01899 25-362): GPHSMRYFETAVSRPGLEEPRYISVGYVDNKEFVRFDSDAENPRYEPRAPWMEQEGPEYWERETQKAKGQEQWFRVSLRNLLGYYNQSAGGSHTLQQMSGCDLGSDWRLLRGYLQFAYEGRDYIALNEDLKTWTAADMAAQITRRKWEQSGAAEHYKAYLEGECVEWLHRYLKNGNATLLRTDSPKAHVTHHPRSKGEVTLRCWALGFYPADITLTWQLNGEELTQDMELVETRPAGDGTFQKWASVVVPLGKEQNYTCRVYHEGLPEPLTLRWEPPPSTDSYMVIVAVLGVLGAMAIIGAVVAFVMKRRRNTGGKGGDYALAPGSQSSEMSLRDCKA
T2 sequence (P01887 21-119 partner): T1 sequence (P01887 21-119 partner)

TC-1 tumor = assay: TC-1 HPV-positive tumor growth in treated mice; format: in vivo, C57BL/6 mice; details: formulated in the DOTAP/antigen complex; FIG. 11
[3] = Peptide entrapment efficiency in DOTAP liposomes (LavaPep); format: physicochemical; details: molar ratio lipopeptide: DOTAP = 1:40, mean±SD (n=3)
Protocol: Cationic lipid/antigen complexes were prepared as described above. Peptide encapsulation efficiency was determined by the percentage of the liposome-bound peptide using LavaPep™ peptide quantification kit (commercially available from Fluorotechnics of Sydney, Australia). Since unincorporated lipopeptide aggregated and could not pass the exclusion filter, the incorporated lipopeptide was measured as the amount associated with the extruded liposomes in the presence of 1% SDS and reported as the mean±SD (n=3). For water-soluble peptide such as native E7 and KSS-E7, the unbound peptide was separated from the complex by a Microcon® centrifugal filtration device (commercially available from Millipore of Bedford, Mass.). The concentration of the unbound peptide was measured using LavaPep™ according to the manufacturer's instruction.

CD8+ T cells = assay: IFN-γ producing CD8+ T cells in spleen after immunization; format: in vivo, mice; details: formulated in DOTAP liposomes; 5 nmol peptide; FIG. 12
[4] = E7 peptide association with the liposome; format: physicochemical; details: 0.7 mg lipids and 0.1 mg E7 per mL (molar ratio=11:1)
Protocol: All lipids were purchased from Avanti Polar Lipids (Alabaster Ala.). Small unilamellar DOTAP, DOEPC, and DOTMA liposomes were prepared by thin film hydration followed by extrusion. The lipid, with or without a drug, in chloroform was dried as a thin layer under a stream of nitrogen in a glass tube. The thin film was vacuum desiccated for 2-3 h and then re-hydrated in cell culture grade water (commercially available from Cambrex of Walkersville, Md.) or buffer containing E7 peptide to a final concentration of 0.7 mg lipids and 0.1 mg E7 per mL (molar ratio=11:1). The lipid dispersion was sequentially extruded through polycarbonate membranes with pore size of 0.4, 0.2 and 0.1 μm. The un-entrapped peptide was not removed. The liposomes were stored at 4° C. until use. E7 peptide association with the liposome was determined by measuring the percentage of liposome-bound peptide. In brief, unbound E7 peptide from DOTAP/E7 or DOTAP/E7/drug (MAP kinase inhibitor) complexes was separated by a Microcon® centrifugal filtrate devices (Millipore, Bedford, Mass.) and the concentration of unbound peptide was measured by Micro BC™ Protein Assay Kit (Pierce, Rockford, Ill. The efficiency of peptide association was determined as percent […] peptide. Approximately 30% of E7 peptide was associated with the liposomes.

Substance | Up-regulation of H-2K^b molecules [1] | Up-regulation of H-2D^b molecules (mean fluorescence) compared to the control [2] | Anti-tumor activity compared with native E7 (TC-1 tumor) | Entrapment efficiency (%) [3] | Number of IFN-γ producing CD8+ cells vs native E7 in DOTAP liposomes (CD8+ T cells) | E7 peptide associated with the liposomes [4] | Entrapment efficiency (%) ([3]; listed as E7)
KSS-E7: E7 peptide RAHYNIVTF elongated with KSS (lysine-serine-serine) spacer, no lipid (not fully specified (N-terminus); also: KSS spacer added, end not given here) | No up-regulation | 8 fold | superior anti-tumor activity | 26.4 ± 6.1% | superior result than the native E7 |  | 
RAHYNIVTF [Native E7] | No up-regulation | four-fold |  | 27.1 ± 5.8% |  | Approximately 30% | about 25%
